The target of this experiment is fibrin (human fibrinogen treated with alpha-thrombin) (human) (UniProt P02679). In words: ELISA; human fibrinogen coated overnight on MaxSorb 96-well plates, wells treated with PBS (fibrinogen) or 100 nM alpha-thrombin in 1% sodium-citrate/PBS for one hour at room temperature (fibrin); ClfA in 1% sodium-citrate added at increasing concentrations for one hour; bound ClfA detected with polyclonal anti-ClfA and anti-rabbit-HRP; non-linear regression, one-site saturation. In general terms: ELISA stands for enzyme-linked immunosorbent assay.

Chain of clumping factor A (ClfA), purified recombinant (Q53653 40-899): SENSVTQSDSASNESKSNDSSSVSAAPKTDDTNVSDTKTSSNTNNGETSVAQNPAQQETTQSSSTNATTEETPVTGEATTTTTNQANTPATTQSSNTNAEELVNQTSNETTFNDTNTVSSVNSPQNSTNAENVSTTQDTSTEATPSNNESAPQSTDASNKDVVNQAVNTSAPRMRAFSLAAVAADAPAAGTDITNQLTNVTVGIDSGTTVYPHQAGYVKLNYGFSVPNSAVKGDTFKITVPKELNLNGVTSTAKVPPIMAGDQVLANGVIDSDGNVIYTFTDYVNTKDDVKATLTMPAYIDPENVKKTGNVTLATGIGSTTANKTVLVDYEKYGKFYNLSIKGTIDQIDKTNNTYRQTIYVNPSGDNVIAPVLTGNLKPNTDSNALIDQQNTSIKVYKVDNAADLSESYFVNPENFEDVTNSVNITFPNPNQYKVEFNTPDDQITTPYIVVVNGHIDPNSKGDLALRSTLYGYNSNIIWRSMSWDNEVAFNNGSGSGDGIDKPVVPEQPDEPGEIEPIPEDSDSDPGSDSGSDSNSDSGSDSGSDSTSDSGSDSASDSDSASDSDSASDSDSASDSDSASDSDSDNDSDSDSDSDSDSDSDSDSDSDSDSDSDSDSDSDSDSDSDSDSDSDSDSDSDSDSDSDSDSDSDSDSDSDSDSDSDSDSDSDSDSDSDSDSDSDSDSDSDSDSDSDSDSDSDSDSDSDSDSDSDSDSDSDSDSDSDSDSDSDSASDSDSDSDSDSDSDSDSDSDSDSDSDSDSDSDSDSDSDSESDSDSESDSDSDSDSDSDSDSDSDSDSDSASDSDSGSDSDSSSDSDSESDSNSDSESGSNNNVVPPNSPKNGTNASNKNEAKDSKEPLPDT

Turning to “clumping factor A (ClfA), purified recombinant (from UniProt Q53653 40-899) (natural protein)”, the equilibrium dissociation constant (Kd) – broadly, a measure of binding affinity in units of concentration – was 662 nM.

These data come from PMC3197598.
